Laboratory results taken from patent publication US20140037642A1, “METHODS AND COMPOSITIONS RELATING TO INHIBITION OF IGF-1R” (AMGEN INC., priority 2011, published 2014).
pKi: −log10 of the molar value.

Legend:
[1] = target: hu IGF-1R(ECD)-C3-muIgG1Fc (human; mouse); test: ORIGEN competition with 1 nM Ru-IGF-1 for IGF-1R(ECD)-C3-muFc on beads
[2] = target: hu IGF-1R(ECD)-C3-muIgG1Fc (human; mouse); test: ORIGEN competition with 2 nM Ru-IGF-2 for IGF-1R(ECD)-C3-muFc on beads

Row | pKi [1] | Max (%), maximum level of inhibition at 1 µM antibody [1] [%] | pKi [2] | Max (%), maximum level of inhibition at 1 µM antibody [2] [%] | Substance
1 | 8.28 | 91 | – | – | murine anti-IGF-1R antibody αIR3 (Calbiochem)
2 | 7.80 | 89 | 7.88 | 99 | murine anti-IGF-1R antibody 1H7 (Santa Cruz Biotechnology)
